The source of these data is paper PMC11025564 (The journal of physical chemistry. B, 2018).

To fix the notation:
T1: human integrin β3(P685-F727) TM peptide incorporating β3(C687S) (human, UniProt P05106 711-753, C687S)
T1 chain (looked up): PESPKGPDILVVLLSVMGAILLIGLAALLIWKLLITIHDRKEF

T2: integrin β3(P685-F727) TM peptide C687S W715I (human, UniProt P05106 711-753, C687S | W715I)
T2 chain (looked up): T1 chain (looked up) with W31I

T3: integrin β3(P685-F727) TM peptide C687S W715A (human, UniProt P05106 711-753, C687S | W715A)
T3 chain (looked up): T1 chain (looked up) with W31A

T4: integrin β3(P685-F727) TM peptide C687S W715H (human, UniProt P05106 711-753, C687S | W715H)
T4 chain (looked up): T1 chain (looked up) with W31H

T5: integrin β3(P685-F727) TM peptide C687S W715F (human, UniProt P05106 711-753, C687S | W715F)
T5 chain (looked up): T1 chain (looked up) with W31F

T6: integrin β3(P685-F727) TM peptide C687S W715Y (human, UniProt P05106 711-753, C687S | W715Y)
T6 chain (looked up): T1 chain (looked up) with W31Y

B1: human integrin αIIb(A958-P998) TM peptide (peptide)
chain: not shown
B2: integrin αIIb(A958-P998) TM peptide W967Y (peptide)
chain: not shown
B3: integrin αIIb(A958-P998) TM peptide W967V (peptide)
chain: not shown
B4: integrin αIIb(A958-P998) TM peptide W967H (peptide)
chain: not shown
B5: integrin αIIb(A958-P998) TM peptide W967F (peptide)
chain: not shown

Where a chain is given by its changes, count along the chain named. Names may count otherwise.

The first test deals with T1, human integrin β3(P685-F727) TM peptide …. The experiment in a line: intrinsic tryptophan fluorescence emission.
With ALEERAIPIVVVLVGVLGGLLLLTILVLAMHKVGFFKRNRP (peptide, UniProt P08514 989-1029, looked up) [integrin αIIb(A958-P998) TM peptide W967V/W968V/W988H], the binding result is “binds”.

The target in the next test is T2, integrin β3(P685-F727) TM peptide C687S …. The test can be described thus: intrinsic tryptophan fluorescence emission.
As for ALEERAIPIVWVLVGVLGGLLLLTILVLAMHKVGFFKRNRP (peptide, UniProt P08514 989-1029, looked up) [integrin αIIb(A958-P998) TM peptide W988H/W967V], the binding result is listed as “binds”.

The next test addresses T1, human integrin β3(P685-F727) TM peptide …. The experiment in a line: ITC.
B1: the “KXY (association equilibrium constant on the mole fraction scale)” value amounted to 3250 ± 60 and the dH was -16 ± 0.1 kcal/mol.
Regarding ALEERAIPIWWVLVGVLGGLLLLTILVLAMFKVGFFKRNRP (peptide, UniProt P08514 989-1029, looked up) [integrin αIIb(A958-P998) TM peptide W988F], the “KXY (association equilibrium constant on the mole fraction scale)” value was found to be 1000 ± 20 and the dH was -16.4 ± 0.2 kcal/mol.
As for B2, the “KXY (association equilibrium constant on the mole fraction scale)” value turned out to be 4700 ± 100 and the dH was -13.7 ± 0.2 kcal/mol.
In the case of ALEERAIPIWWVLVGVLGGLLLLTILVLAMYKVGFFKRNRP (peptide, UniProt P08514 989-1029, looked up) [integrin αIIb(A958-P998) TM peptide W988Y], the “KXY (association equilibrium constant on the mole fraction scale)” value worked out at 2320 ± 50 and the dH is -19.2 ± 0.2 kcal/mol.
On to B3, for which the “KXY (association equilibrium constant on the mole fraction scale)” value turned out to be 4450 ± 80 and the dH is -13.1 ± 0.1 kcal/mol.
For the molecule ALEERAIPIHVVLVGVLGGLLLLTILVLAMWKVGFFKRNRP (peptide, UniProt P08514 989-1029, looked up) [integrin αIIb(A958-P998) TM peptide W967H/W968V], the “KXY (association equilibrium constant on the mole fraction scale)” value was 7000 ± 200 and the dH was -14.9 ± 0.2 kcal/mol.
Take B4: the “KXY (association equilibrium constant on the mole fraction scale)” value was 2530 ± 50 and the dH was -15.4 ± 0.1 kcal/mol.
Turning to ALEERAIPIVVVLVGVLGGLLLLTILVLAMWKVGFFKRNRP (peptide, UniProt P08514 989-1029, looked up) [integrin αIIb(A958-P998) TM peptide W967V/W968V], the “KXY (association equilibrium constant on the mole fraction scale)” value amounted to 2680 ± 60 and the dH is -17.8 ± 0.2 kcal/mol.
For ALEERAIPIWWVLVGVLGGLLLLTILVLAMAKVGFFKRNRP (peptide, UniProt P08514 989-1029, looked up) [integrin αIIb(A958-P998) TM peptide W988A] the same measures were 3320 ± 70 and -17.3 ± 0.1 kcal/mol.
As for B5, the “KXY (association equilibrium constant on the mole fraction scale)” value is 4030 ± 90 and the dH is -12.6 ± 0.1 kcal/mol.
ALEERAIPIWWVLVGVLGGLLLLTILVLAMVKVGFFKRNRP (peptide, UniProt P08514 989-1029, looked up) [integrin αIIb(A958-P998) TM peptide W988V]: the “KXY (association equilibrium constant on the mole fraction scale)” value was 2900 ± 100 and the dH was -13.7 ± 0.2 kcal/mol.
The matching figures for ALEERAIPIFVVLVGVLGGLLLLTILVLAMWKVGFFKRNRP (peptide, UniProt P08514 989-1029, looked up) [integrin αIIb(A958-P998) TM peptide W967F/W968V]: 6500 ± 200 and -15.7 ± 0.2 kcal/mol.
On to ALEERAIPIWWVLVGVLGGLLLLTILVLAMHKVGFFKRNRP (peptide, UniProt P08514 989-1029, looked up) [integrin αIIb(A958-P998) TM peptide W988H], for which the “KXY (association equilibrium constant on the mole fraction scale)” value amounted to 3540 ± 40 and the dH is -16.4 ± 0.1 kcal/mol.
In the case of ALEERAIPIAVVLVGVLGGLLLLTILVLAMWKVGFFKRNRP (peptide, UniProt P08514 989-1029, looked up) [integrin αIIb(A958-P998) TM peptide W967A/W968V], the “KXY (association equilibrium constant on the mole fraction scale)” value was determined as 6400 ± 200 and the dH was -18.4 ± 0.2 kcal/mol.
With ALEERAIPIWVVLVGVLGGLLLLTILVLAMWKVGFFKRNRP (peptide, UniProt P08514 989-1029, looked up) [integrin αIIb(A958-P998) TM peptide W968V], the “KXY (association equilibrium constant on the mole fraction scale)” value amounted to 13200 ± 600 and the dH was -14.3 ± 0.2 kcal/mol.
As for ALEERAIPIYVVLVGVLGGLLLLTILVLAMWKVGFFKRNRP (peptide, UniProt P08514 989-1029, looked up) [integrin αIIb(A958-P998) TM peptide W967Y/W968V], the “KXY (association equilibrium constant on the mole fraction scale)” value worked out at 9800 ± 400 and the dH is -14 ± 0.2 kcal/mol.

In a further test the target is T3, integrin β3(P685-F727) TM peptide C687S …. The test can be described thus: ITC. On the technique in general: ITC needs no label: the signal is the heat of the interaction.
With B1, the “KXY (association equilibrium constant on the mole fraction scale)” value came to 1300 ± 40 and the dH was -15.5 ± 0.3 kcal/mol.

In another test the target is T4, integrin β3(P685-F727) TM peptide C687S …. The test can be described thus: ITC.
As to B1, the “KXY (association equilibrium constant on the mole fraction scale)” value was 820 ± 40 and the dH is -8.7 ± 0.2 kcal/mol.

In a further test the target is T5, integrin β3(P685-F727) TM peptide C687S …. The test can be described thus: ITC.
Regarding B1, the “KXY (association equilibrium constant on the mole fraction scale)” value came to 2230 ± 50 and the dH is -17.2 ± 0.2 kcal/mol.

In another test the target is T2, integrin β3(P685-F727) TM peptide C687S …. The test can be described thus: ITC.
As to B1, the “KXY (association equilibrium constant on the mole fraction scale)” value stood at 2600 ± 70 and the dH is -9.6 ± 0.1 kcal/mol.

A further test addresses T6, integrin β3(P685-F727) TM peptide C687S …. The experiment in a line: ITC.
Turning to B1, the “KXY (association equilibrium constant on the mole fraction scale)” value was determined as 1320 ± 40 and the dH is -14.2 ± 0.2 kcal/mol.
